The values that follow are results of earlier work, collected in publication PMC3361719.

The target in the data set is p67phox SH3 (Homo sapiens) (UniProt P19878).
Sequence of UniProt P19878 (P19878 457-516): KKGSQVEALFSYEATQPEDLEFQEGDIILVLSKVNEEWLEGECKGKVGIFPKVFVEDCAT

With “p47phox PRR and 368-390 (from UniProt P14598)”, the Kd is 20 nM.

By Kd is commonly meant the equilibrium constant for the complex coming apart.
